The text below walks through data of the RNAGym collection of RNA variant scans (doi:10.7554/elife.80360).

First the molecules themselves.
B1: CPEB3 Ribozyme (parent)
chain: GGGGGCCACAGCAGAAGCGUUCACGUCGCGGCCCCUGUCAGAUUCUGGUGAAUCUGCGAAUUCUGCUGU

Variants of B1 are the subject of this data set. Briefly: self-cleavage, relative activity (ratio to wild type); higher = more cleavage; co-transcriptional.
Consider GGGGGCCACAGCAGAAGCGUUCAGGUCGCGGCCCCUGUCUGAUUCUGGUGAAUCUGCGAAUUCUGCUGU [C24G A40U], for which the self-cleavage amounted to 0.14.

As to GGGGGCCACAGCAGAAGCGUUCAAGUCGCGGGCCCUGUCAGAUUCUGGUGAAUCUGCGAAUUCUGCUGU [C24A C32G], the self-cleavage was determined as 0.234.

On to GGGGGCCACAGCAGAAGCGUUCAAGUCGCGGCCCCUGUCAGAUUCUGGUGAAUCUGCGAAUUCGGCUGU [C24A U64G], for which the self-cleavage amounted to 0.508.

As to GGGGGCCACAGCAGAAGCGUUCAAGUCGCGGCCCCUGUCAGAUUCUGGUGAAUCUGCGAAUUCCGCUGU [C24A U64C], the self-cleavage came to 0.471.

For GGGGGCCACAGCAGAAGCGUUCAGGUCGCGGCCCCUGUCAGAUUCUGAUGAAUCUGCGAAUUCUGCUGU [C24G G48A], the self-cleavage worked out at 0.554.

With GGGGGCCACAGCAGAAGCGUUCAGGUCGCGGCCCCUGUCAGAUUCUGCUGAAUCUGCGAAUUCUGCUGU [C24G G48C], the self-cleavage was 0.449.

Consider GGGGGCCACAGCAGAAGCGUUCAAGUCGCGGCCCCUGUCAGAUUCUGGCGAAUCUGCGAAUUCUGCUGU [C24A U49C], for which the self-cleavage came to 0.74.

GGGGGCCACAGCAGAAGCGUUCAAGUCGCGGCCCCUGUCAGAUUCUGGGGAAUCUGCGAAUUCUGCUGU [C24A U49G]: the self-cleavage came to 0.686.

GGGGGCCACAGCAGAAGCGUUCAAGUCGCGGCCCCUGUCAGAUUCUGGUGAAUCUGCGAAUUCUUCUGU [C24A G65U]: the self-cleavage came to 0.303.

For GGGGGCCACAGCAGAAGCGUUCAAGUCGCGGCCCCUGUCAGAUUCUGGUGAAUCUGCGAAUUCUACUGU [C24A G65A], the self-cleavage is 0.441.

As to GGGGGCCACAGCAGAAGCGUUCAAGUCGCGGCCCCUGUCAGAUUCUGGUGAAUCUGCGAAUUCUCCUGU [C24A G65C], the self-cleavage was determined as 0.245.

Regarding GGGGGCCACAGCAGAAGCGUUCAAGCCGCGGCCCCUGUCAGAUUCUGGUGAAUCUGCGAAUUCUGCUGU [C24A U26C], the self-cleavage is 0.507.

For GGGGGCCACAGCAGAAGCGUUCAGUUCGCGGCCCCUGUCAGAUUCUGGUGAAUCUGCGAAUUCUGCUGU [C24G G25U], the self-cleavage came to 0.104.

For GGGGGCCACAGCAGAAGCGUUCAAGUCGCGGCCCCUGUCAGAUUCUGGUGAAUCUGCGAAUUCUGCCGU [C24A U67C], the self-cleavage was 0.713.

Consider GGGGGCCACAGCAGAAGCGUUCAAGUCGCGGCCCAUGUCAGAUUCUGGUGAAUCUGCGAAUUCUGCUGU [C24A C35A], for which the self-cleavage came out at 0.185.

Turning to GGGGGCCACAGCAGAAGCGUUCAAGUCGCGGCCCUUGUCAGAUUCUGGUGAAUCUGCGAAUUCUGCUGU [C24A C35U], the self-cleavage came to 0.476.

For the variant GGGGGCCACAGCAGAAGCGUUCAAGUCGCGGCCCCUGUCAGAUUCUGGUGAAUAUGCGAAUUCUGCUGU [C24A C54A], the self-cleavage turned out to be 0.516.

Turning to GGGGGCCACAGCAGAAGCGUUCAAGUCGCGGCCCCUGUCAGAUUCUGGUGAAUGUGCGAAUUCUGCUGU [C24A C54G], the self-cleavage came out at 0.549.

Regarding GGGGGCCACAGCAGAAGCGUUCAGGUCGCGGCACCUGUCAGAUUCUGGUGAAUCUGCGAAUUCUGCUGU [C24G C33A], the self-cleavage turned out to be 0.206.

Take GGGGGCCACAGCAGAAGCGUUCAGGUCGCGGCGCCUGUCAGAUUCUGGUGAAUCUGCGAAUUCUGCUGU [C24G C33G]: the self-cleavage came to 0.201.

In the case of GGGGGCCACAGCAGAAGCGUUCAGGACGCGGCCCCUGUCAGAUUCUGGUGAAUCUGCGAAUUCUGCUGU [C24G U26A], the self-cleavage turned out to be 0.206.

GGGGGCCACAGCAGAAGCGUUCAGGGCGCGGCCCCUGUCAGAUUCUGGUGAAUCUGCGAAUUCUGCUGU [C24G U26G]: the self-cleavage amounted to 0.344.

Take GGGGGCCACAGCAGAAGCGUUCAGGUCGCGGCCCCUUUCAGAUUCUGGUGAAUCUGCGAAUUCUGCUGU [C24G G37U]: the self-cleavage worked out at 0.278.

As to GGGGGCCACAGCAGAAGCGUUCAAGUCGCGGCCCCUGUCAGAUUCUGGUGAAUCUGCGAAGUCUGCUGU [C24A U61G], the self-cleavage is 0.347.

For the variant GGGGGCCACAGCAGAAGCGUUCAAGUCGCGGCCCCUGUCAGAUUCUGGUGAAUCUGCGAAAUCUGCUGU [C24A U61A], the self-cleavage is 0.452.

For the variant GGGGGCCACAGCAGAAGCGUUCAGGUCGCGGCCCCUGUCAGCUUCUGGUGAAUCUGCGAAUUCUGCUGU [C24G A42C], the self-cleavage was found to be 0.385.

Regarding GGGGGCCACAGCAGAAGCGUUCAAGUCGCGGCCCCUGUCAGCUUCUGGUGAAUCUGCGAAUUCUGCUGU [C24A A42C], the self-cleavage was found to be 0.629.

Turning to GGGGGCCACAGCAGAAGCGUUCAAGUCGCGGCCCCUGUCAGUUUCUGGUGAAUCUGCGAAUUCUGCUGU [C24A A42U], the self-cleavage came to 0.66.

On to GGGGGCCACAGCAGAAGCGUUCAGGUCGCGGCCCCUGUCAGAUUCUGGUGAAUCUCCGAAUUCUGCUGU [C24G G56C], for which the self-cleavage worked out at 0.245.

As to GGGGGCCACAGCAGAAGCGUUCAGGUCUCGGCCCCUGUCAGAUUCUGGUGAAUCUGCGAAUUCUGCUGU [C24G G28U], the self-cleavage was found to be 0.13.

Take GGGGGCCACAGCAGAAGCGUUCAGGUCCCGGCCCCUGUCAGAUUCUGGUGAAUCUGCGAAUUCUGCUGU [C24G G28C]: the self-cleavage amounted to 0.224.

Turning to GGGGGCCACAGCAGAAGCGUUCAGGUCGCGGCCCCUGUGAGAUUCUGGUGAAUCUGCGAAUUCUGCUGU [C24G C39G], the self-cleavage stood at 0.324.

On to GGGGGCCACAGCAGAAGCGUUCAGGUCGCGGCCCCUGUAAGAUUCUGGUGAAUCUGCGAAUUCUGCUGU [C24G C39A], for which the self-cleavage came out at 0.214.

For the variant GGGGGCCACAGCAGAAGCGUUCAGGUCGCGGCCCCUGUCAGAUUCUGGUGAAUCUGCUAAUUCUGCUGU [C24G G58U], the self-cleavage worked out at 0.387.

In the case of GGGGGCCACAGCAGAAGCGUUCAGGUCGCGGCCCCUGUCAGAUUCUGGUGAAUCUGCGAAUUCUGUUGU [C24G C66U], the self-cleavage is 0.502.

For the variant GGGGGCCACAGCAGAAGCGUUCAGGUCGCGGCCCCUGUCAGAUUCUCGUGAAUCUGCGAAUUCUGCUGU [C24G G47C], the self-cleavage is 0.502.

Consider GGGGGCCACAGCAGAAGCGUUCAAGUCGCGGCCCCUGUCUGAUUCUGGUGAAUCUGCGAAUUCUGCUGU [C24A A40U], for which the self-cleavage was found to be 0.383.

GGGGGCCACAGCAGAAGCGUUCAAGUCGCGGCCCCUGUCAGAUUCUCGUGAAUCUGCGAAUUCUGCUGU [C24A G47C]: the self-cleavage worked out at 0.765.

Regarding GGGGGCCACAGCAGAAGCGUUCAAGUCGCGGCCCCUGUCAGAUUCUUGUGAAUCUGCGAAUUCUGCUGU [C24A G47U], the self-cleavage worked out at 0.754.
